Source: US20200390853A1, “ACTIVE PEPTIDE FOR ENHANCING THE PHAGOCYTIC FUNCTIONS OF RETINAL PIGMENT EPITHELIUM AND A USE THEREOF” (Beijing Tongren Hospital, Capital Medical University, priority 2019, published 2020)

Key:
[1] = tested on: AKT phosphorylation level downstream of MerTK; assay: AKT phosphorylation level in RPE cells cultivated in vitro (Western blotting, pAKT/GAPDH); assay type: cell-based; conditions: 200 ng/ml and 800 ng/ml, 30 minutes, vs blank control
Experimental: Segmented cloning was conducted according to the functional domain of Gas6 protein, wherein the sequence of EGF-LamininG functional domain is the primary active peptide sequence (G3, named as Gas6-LamininG active peptide).

RPE cells = assay: Model of in vitro RPE phagocytosis (disc membrane uptake, laser confocal); assay type: cell-based; conditions: after 3 h of RPE phagocytosis, p<0.05 between groups

B1: Gas6 full-length proteins: Gas6 full-length proteins used as comparator (protein, UniProt Q14393 1-678, looked up)
chain: MAPSLSPGPAALRRAPQLLLLLLAAECALAALLPAREATQFLRPRQRRAFQVFEEAKQGHLERECVEELCSREEAREVFENDPETDYFYPRYLDCINKYGSPYTKNSGFATCVQNLPDQCTPNPCDRKGTQACQDLMGNFFCLCKAGWGGRLCDKDVNECSQENGGCLQICHNKPGSFHCSCHSGFELSSDGRTCQDIDECADSEACGEARCKNLPGSYSCLCDEGFAYSSQEKACRDVDECLQGRCEQVCVNSPGSYTCHCDGRGGLKLSQDMDTCEDILPCVPFSVAKSVKSLYLGRMFSGTPVIRLRFKRLQPTRLVAEFDFRTFDPEGILLFAGGHQDSTWIVLALRAGRLELQLRYNGVGRVTSSGPVINHGMWQTISVEELARNLVIKVNRDAVMKIAVAGDLFQPERGLYHLNLTVGGIPFHEKDLVQPINPRLDGCMRSWNWLNGEDTTIQETVKVNTRMQCFSVTERGSFYPGSGFAFYSLDYMRTPLDVGTESTWEVEVVAHIRPAADTGVLFALWAPDLRAVPLSVALVDYHSTKKLKKQLVVLAVEHTALALMEIKVCDGQEHVVTVSLRDGEATLEVDGTRGQSEVSAAQLQERLAVLERHLRSPVLTFAGGLPDVPVTSAPVTAFYRGCMTLEVNRRLLDLDEAAYKHSDITAHSCPPVEPAAA
modifications: full-length
notes: Gas6 full-length proteins used as comparator
Akt phosphorylation level (relative gray value of pAKT/GAPDH) [1]: significantly upregulating Akt phosphorylation levels

B2: Gas6-LamininG active peptide: sequence of EGF-LamininG functional domain of Gas6 protein, amino acid sequence SEQ ID NO.1 (protein)
chain: DQCTPNPCDRKGTQACQDLMGNFFCLCKAGWGGRLCDKDVNECSQENGGCLQICHNKPGSFHCSCHSGFELSSDGRTCQDIDECADSEACGEARCKNLPGSYSCLCDEGFAYSSQEKACRDVDECLQGRCEQVCVNSPGSYTCHCDGRGGLKLSQDMDTCEDILPCVPFSVAKSVKSLYLGRMFSGTPVIRLRFKRLQPTRLVAEFDFRTFDPEGILLFAGGHQDSTWIVLALRAGRLELQLRYNGVGRVTSSGPVINHGMWQTISVEELARNLVIKVNRDAVMKIAVAGDLFQPERGLYHLNLTVGGIPFHEKDLVQPINPRLDGCMRSWNWLNGEDTTIQETVKVNTRMQCFSVTERGSFYPGSGFAFYSLDYMRTPLDVGTESTWEVEVVAHIRPAADTGVLFALWAPDLRAVPLSVALVDYHSTKKLKKQLVVLAVEHTALALMEIKVCDGQEHVVTVSLRDGEATLEVDGTRGQSEVSAAQLQERLAVLERHLRSPVLTFAGGLPDVPVTSAPVTAFYRGCMTLEVNRRLLDLDEAAYKHSDITAHSCPPVEPAAA
modifications: the amino acid sequence of the active peptide
Akt phosphorylation level (relative gray value of pAKT/GAPDH) [1]: significantly upregulating Akt phosphorylation levels
contents of disc membranes taken up (RPE phagocytosis capacity) (RPE cells): an effect of enhancing the phagocytic functions of retinal pigment epithelium
